test system: K4 kissing-loop RNA reporter; experiment: apparent KD of K4 kissing-loop reporter; higher = weaker reporter binding; conditions: Eterna round: R107; input ligand: FMN 200 uM
Experimental: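 RNA-MaP round R107: designed RNA switches with theophylline, tryptophan, arginine or FMN aptamers are transcribed on-chip within common flanks. They are titrated with a labelled K4 kissing-loop RNA reporter in RNA-MaP buffer (100 mM Tris pH 7.5, 80 mM KCl, 4 mM MgCl2), without ligand or with the indicated ligand. Median apparent KD per design.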
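Note: bound reporter read as fluorescence of individual clusters on recovered sequencing chips by microscopy, with normalized cluster intensities fitted with a binding model.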

Sequence | apparent KD of K4 kissing-loop reporter [nM]
UGGAGUGCCUGGUCGUCACUAUGCCAACCACGAGGACCGGUACGGCCGCCACUCGUGAGGGAUAUUCAGAAAGUGAUGUUUUUUG [theeternabot_exclusion_KL_Trp_A_1] | 590
UUUUAUUAAUACUUCUAGUGAUGUUAGAUACGAGGACCGGUACGGCCGCCACUCGCUUAUUGGUUUAUAUAUUUUAUAUUCUUUA [JR_SSTryptoA_Sub014] | 327
AGAGGUCCCAGUGAUGUUGGUGCGUUUGGUCGAGGACCGGUACGGCCGCCACUCGUUCAUAGUAAGCCCUCUUUAGUGUUUCUAA [theeternabot_sameState_KL_Trp_A_9] | 544
AGAUUCGACACGGCCGCCACUUGUGGUGGAUUAUCCUAUGUAAGACAUGAGUGAUGUUCAUGUACAAGGACCGGGUGUUGAGUCU [KL-XTryp-B4 #analogue] | 215
CGAGUCAAUUCAGAUACCAGCCAAUUAAAGUCGAGUGAUGUUCGACAAUGAACAUCCAAAGGCCCUUGGCAGCUGAAUUGGGAAC [Same State Theophylline B GF 18] | 144
GGAGUUACCUGGGAUACCAGUCGGAGUCUCAGAGCUCGGAGUGAUGUUCUGGGAUGUUUCGGCCCUUGGCAGCUCUGGGACUCCU [#2 Exclusion - Theophylline B Attempt #17 (HarryS)] | 698
UCUGGAGCAUAUGAUACCAGCAGUGAGAGACAGGAAGUAUAGUGAUGUUAUAUGAGAGAAUGCCCUUGGCAGCGUGUGCAGUGGG [SSTheophylB.O] | 119
GUCUCAAAAGAGGCAAGCACUAACGAGGACAAGGAUAUCAUCUCAAUGAGAAGGUGUCCUCGUCCUUAGUGAUGUUAAGGAGUGC [Omei KL FMN A SS E v5] | 348
AGGUGCUACGGAAGGAGCGCACCAGUGAUGUUGGUGUGUGACCGUGACAUGGCAGUCAAGGUGCAGGUAGGUCGCCGUGGCCAUA [Rigela] | 138
GGAUUGCCAGUGAUGUUGGCAUAAACUGAAGGAGCGCGUGAAAACGCAGGUAGGUCGCAGAACCUUGCCAACUAUUUUAUUUACC [Ex Arginine A K4 23] | 89.3
AACGUUUUGAGAAGGAGCGCGUUCAGCAGUGAUGUUGCUUUACUUCAAUUUCUAGAUAAUUCGCAGGUAGGUCGCUCAAUACGUA [JR_Nu_ExcArginiB_Sub023] | 503
UUAGUUGAAAGUGAUACCAGACGAGUGAAGGGAAGAAAUUAAGUUGGAGUGAUGUUCCGCGUCCCUUGGCAGCACUUUGUAAUUU [Exclusion Theophylline B GF 22] | 135
UUUCGGUUCUGAGGAUAUUCGGACAAAUAUAGUGAUGUUGUAUAAGGAGGAGGGUGUUGGCAGUGCGGAGAAGGCAGACCACGAU [ExFMNB.X] | 869
GGGUUGAACUGAAGGAGCGAGAAAUAGAAAGUAAGAAGAUAAGCUAGUGAUGUUAGAAAUUCUCAGGUAGGUCGCAGUAAGAAUU [V3] | 338
CCCUCACGAGUGAUGUUCGUAGGGUACAGUCAGGAUAUCAUGCGGUUGAGAAGGGACAGAGAGGGCGGCGGCGGGUUGCUCAUCU [Isanausbe] | 197
GAUAUAGUGAUGUUAUAUACUGAUAGACAACGAGGACCGGUACGGCCGCCACUCGAGAGGGUGAAAAUGAUGAUAAAAUAAUGAU [#02 K4 Tryptophan A Exclusion] | 329

same assay, conditions: Eterna round: R107; input ligand: arginine 13.2 mM

Sequence | apparent KD of K4 kissing-loop reporter [nM]
CAUAGACAAGUGAUGUUUGUCAUAACCGAAGGAGCGUCGUUGAAGACAGGUAGGUCGCGGAUUAAUUUAGAUUAUAUUCUUUUUA [JR_SSArginiA_Sub020] | 462
GCAUCCAUGGCAGGAUAUAGGUUCGUGGAGUGAUGUUCCAUAGCCCGAGUGAUGUUCGUUAUCCACCUAGAAGGGCCAUGGAUGC [whbob_Ex_FMNB__2th212] | 205
ACCCAAGCCCAUCGCGCAGUGAUGUUGUCGCGAGGACCGGUACGGCCGCCACUCGAUAGCAGUGGCAACGUCAUCAUAAUCGAUU [theeternabot_exclusion_KL_Trp_A_50] | 310
UCGAAAUGCGUCUCCUAGUUACUCCGGGAAGGAGCGUGGAUAACCGCAGGUAGGUCGCCCGGAAGCCGGACCAGUGAUGUUGGUC [Exclusion Arginine A Gf 29] | 179
GGUAGCAUGGCGGCCGCCACUCGCAUCACAGGCCAUUAACCGCCCUCGUAAAGUGAUGUUUUACAGAGGACCGGGCCAUGCUACC | 257
UAAGAAUAAGUAGCAGUGAUGUUGCUACUACGAGGACCGGUACGGCCGCCACUCGAGUCCUCGAAACAUCACUGAACGAGGAAUA [(H,1)-(H,2)-(Trp1)-(Trp2)-(T)'-(H)'-(T)''] | 150
UGAUACCAGGCGGCCGCCACUCCUACAGGUCAAAGACCUGUAGAACUGGUUUUUUAGUGAUGUUGGAGGACCGGGCCUGGUAUCU [FiskerMod 30 - Jieux - Exclusion - Tryptophan B] | 217
UGGAGUUGACGAAAAGUCAACUCCUGAGAUACCAGUGACGAAAGUCACCCUUGGCAGCUCACUGCCAGUGAUGUUGGAACUAAAG [#02 K4 Theophylline A Same State] | 158
AUUAUAUUGUGAAGGAGCGCGAAUAGCAGUGAUGUUGCUAUCAAACGAUAUAUUAUUUACACGCAGGUAGGUCGCACAAUAUAUA [JR_Nu_SSArginiB_Sub022] | 125
UGCAUGCUUGGAGUGAUGUUCCAAGAUGAUACCAGUGCUUUUUUGCACCCUUGGCAGCGUCUGAUUGCAUGCACGUCGAAAGACG | 471
